Results taken from article PMC10289234, “Construction of an alpaca immune antibody library for the selection of nanobodies against Drosophila melanogaster proteins” (Frontiers in Bioengineering and Biotechnology, 2023).
Like-named read-outs stand apart in the source and are kept apart here.

What was measured:
[1] = molecular target: T1, Drosophila CG7544, full length (Drosophila melanogaster (Fruit fly)., UniProt Q7K3B9); assay: ELISA; 96-well plate coated with 1 ug/well purified antigen, blocked with 3% BSA; 1 ug purified VHH for 2 h at RT; anti-Flag antibody, HRP anti-mouse, TMB, absorbance at 450 nm; negative controls without Flag antibody or VHH; settings: both partners purified
T1 construct: CG7544 of Drosophila melanogaster, 305 aa, RNA N6-methyltransferase of U6 small nuclear RNA; full length, PCR-amplified from Drosophila cDNA and cloned into pET-28a; also called CG7454 (misprint in the results)
T1 sequence (Q7K3B9 whole entry): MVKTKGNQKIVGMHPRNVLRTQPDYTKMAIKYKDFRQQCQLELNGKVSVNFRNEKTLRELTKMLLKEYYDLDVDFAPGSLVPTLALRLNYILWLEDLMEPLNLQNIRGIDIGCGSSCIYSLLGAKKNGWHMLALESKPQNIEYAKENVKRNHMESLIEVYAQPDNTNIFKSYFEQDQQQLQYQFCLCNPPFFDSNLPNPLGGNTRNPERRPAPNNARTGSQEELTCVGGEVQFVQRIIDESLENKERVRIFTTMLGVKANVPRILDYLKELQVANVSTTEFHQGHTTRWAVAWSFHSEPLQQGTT

[2] = molecular target: T2, Drosophila CyclinE, amino acids 1-361 (truncated CyclinE) (Drosophila melanogaster (Fruit fly)., UniProt P54733); assay: ELISA; colonies of the third-round sublibrary tested on a 96-well plate coated with CyclinE, blocked with 3% BSA; absorbance at 405 nm twofold over negative control wells counted as positive; settings: one partner purified
T2 construct: CyclinE of Drosophila melanogaster, 709 aa, amino acids 1-361, PCR-amplified from cDNA and cloned into pET-28a-GFP-TEV; Vector pET-28a-GFP-TEV was built in the authors' laboratory; also called CycE; source: E. coli BL21 (DE3); not shown: GFP, N-terminal, cleaved
T2 sequence (P54733 1-361): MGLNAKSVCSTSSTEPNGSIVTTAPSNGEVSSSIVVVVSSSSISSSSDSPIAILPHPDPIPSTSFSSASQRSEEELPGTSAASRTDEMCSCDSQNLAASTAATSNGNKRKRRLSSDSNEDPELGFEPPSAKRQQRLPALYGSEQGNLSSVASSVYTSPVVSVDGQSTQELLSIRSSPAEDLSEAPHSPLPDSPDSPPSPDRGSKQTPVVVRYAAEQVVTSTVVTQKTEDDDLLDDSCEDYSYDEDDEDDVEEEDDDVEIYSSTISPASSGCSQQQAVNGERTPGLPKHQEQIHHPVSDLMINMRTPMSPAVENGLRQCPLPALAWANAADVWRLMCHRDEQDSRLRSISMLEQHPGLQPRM

[3] = molecular target: T1, Drosophila CG7544, full length
[4] = molecular target: Drosophila Myc, amino acids 1-400 (truncated Myc) (Drosophila melanogaster, strain not …, UniProt Q9W4S7)
Drosophila Myc, amino acids 1-400 (truncated Myc), sequence (Q9W4S7 1-400): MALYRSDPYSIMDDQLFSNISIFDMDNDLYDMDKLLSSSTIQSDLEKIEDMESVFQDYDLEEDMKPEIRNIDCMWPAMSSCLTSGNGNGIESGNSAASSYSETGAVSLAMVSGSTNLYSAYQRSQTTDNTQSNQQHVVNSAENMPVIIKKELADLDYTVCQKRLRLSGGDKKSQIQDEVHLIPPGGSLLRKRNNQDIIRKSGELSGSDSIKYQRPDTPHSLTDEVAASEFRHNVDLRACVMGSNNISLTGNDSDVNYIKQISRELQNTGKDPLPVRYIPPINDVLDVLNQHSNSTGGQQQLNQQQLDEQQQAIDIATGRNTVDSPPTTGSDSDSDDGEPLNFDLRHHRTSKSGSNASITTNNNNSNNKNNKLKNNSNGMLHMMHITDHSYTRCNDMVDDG

B1: C3, nanobody against CG7544 (Flag-Nb-His) (VHH)
VHH: DVQLQESGGGLVQAGGSLRLSCAASGNTLSTYGMGWFRQAPGKEREFVALINWGGTANYEDSVKGRFTISRDNVQNTMYLQMNNLKPEDTAVYYCFLGTYWGQGTWSPSPA
notes: not shown: Flag, N-terminal, kept
binding result [1]: binds

B2: N1, VHH of a colony from the third-round sublibrary of CyclinE (VHH)
VHH: DVQLQESGGGLVQAGGSLRLSCAASGGTFSRYSMGWFRQAPGKEREFVSAIGWSGYSTRYADSVKGRFTISRDNAKNTVYLQMNSLKPEDTAVYYCNAIVGVFIKRQYWGQGTQVTVSS
notes: The colony ELISA follows Fang et al., 2020; source: randomly selected colony from the third-round sublibrary of CyclinE (vhh in phage display vector pADL-10b), not purified
binding result [2]: binds

B3: C4 (VHH)
VHH: DVQLQESGGGLVQPGGSLRLSCAASGFTFDSNAFGWFRQAPGKEREGVSCISARDSTTFYADAVKGRFTVSRDSAKNTVYLEMDSLKPEDTAVYYCATLYRATAQAMCAMSTLLGYWGQGTQVTVSS
Kd [3]: 10.5 µM

B4: C9 (VHH)
VHH: DVQLQESGGTLVQPGGSLRLSCKASGFPFSDYHMSWVRQAPGKRPEWLSVITTSGDWTHYADSVKGRFAISRDNAKSTLYLQMNSLKPDDTAVYYCARGHYIILGQGTQVTVSS
binding result [4]: binds

B5: C8 (VHH)
VHH: DVQLQESGGGLVQAGGSLRLSCAASGLTSSYYAIGWFRQAPGKDSEGVSCLDTTGNRINLSNSAKGRFTISRDNAKNTVYLQMNNLKPEDTAIYYCTVVLNSLCDSRWIGAFGSWGQGTQVTVSS
binding result [3]: binds

B6: B12 (VHH)
VHH: DVQLQESGGGLVQPGGSLRLSCAASGFTFEAYTMSWVRQAPGKGLEWVSAISQGGATTAYADSVKGRFTISRDNAKSTLYLQMNNLKPEDTAVYYCAKWVFTPSVLGQGTQVTVSS
binding result [4]: binds
